Tested on: MS2 coat protein
Assay: apparent KD of MS2 coat protein; higher = weaker reporter binding
Details: Eterna round: R107
How it was run: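 In 100 mM Tris-HCl pH 7.5 with 80 mM KCl and 4 mM MgCl2, and without or with constant ligand, SNAP-549-labelled MS2 coat protein was titrated in twofold steps from 0.7 or 1.5 nM to 3 µM. Per-step times went from 0.8–1.5 h down to 10–20 min. The RNA switches were transcribed on-chip from Illumina sequencing clusters, and apparent KD is the per-design median of normalised cluster binding-curve fits.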

[1] = input ligand: theophylline 20 uM
[2] = input ligand: theophylline 2 mM
[3] = input ligand: tryptophan 2.4 mM

Row | Sequence | apparent KD of MS2 coat protein (input ligand: arginine 13.2 mM) [nM] | apparent KD of MS2 coat protein [1] [nM] | apparent KD of MS2 coat protein [2] [nM] | apparent KD of MS2 coat protein (input ligand: none) [nM] | apparent KD of MS2 coat protein [3] [nM]
1 | CCUCCUUGUACGGCCGCCACUGCAUCUCUGGAUACUCCGAUAAUACAUGAGGAUCACCCAUGUUACAGGACCGGGUAUAUAUUAC [theeternabot_sameState_MS2_Trp_B_19] | 14.7 | 18.7 | 15.3 | – | –
2 | CGAAUAUAGACGGCCGCCACUCUACAAACAUGAGGAUCACCCAUGUUCACAUAGUGGAAACACAUGAGGACCGGGUCAUAGGCAU [#18 Same State - Tryptophan B] | 19.2 | 25.4 | 21.3 | – | –
3 | CGAUAGAUACGAAGGAGCGACAUGAGGAUCACCCAUGUCUACCACGUCGAAAGACGCUCAUGUCAGGUAGGUCGCGUAUUUAUCG [Astros-Eli-mod8] | 60.3 | 124 | 156 | 122 | 101
4 | CGGCCCUCACCUGAGGAUCACCCGGGUGAUACCAGCCUGGAAACAGGCCCUUGGCAGCACCAGGUCAUCAAAGAUGACCAAGCCG [TheoAX 26 #OpenEnded #AlternativeMS2] | 21.3 | 110 | 2630 | 97.5 | 105
5 | CGUAUUACGAAAGUAGUACGUAGUUCGAGUCGAGGACCGGUACGGCCGCCACUCGGACAUGAGGAUCACCCAUGUAGCGAAAGCU [Tryptophan A 23] | 68.2 | 156 | 161 | 125 | 72.4
6 | CGUAUUGUAACUGAUACCAGUGUACUGACAUGAGGAUCACCCAUGUUGGGUUUUGUUGUACACCCUUGGCAGCAGAAUCAAUACG [AstrosExyTheB#5] | 59.4 | 74.2 | – | – | 65.8
7 | CUAAGAGCGGCGGCCGCCACUGGUAACCAAGAGGCGGAGCCUCUGACAUGAGGAUCACCCAUGUUCAGGACCGGGUCGUCUUAGA [#07 Same State - Tryptophan B] | 7.23 | 13.6 | 18.5 | 12.2 | 10.9
8 | CUAUAUAUAUCGGCCGCCACUUACUCAUGAGGUAACAACAUGAGGAUCACCCAUGUUUGAGGAUCAAGGACCGGGAUAUAUAUAG [AstrosSSTryB#15] | 31.8 | 33.4 | 32.6 | – | –
9 | CUAUAUGGAAACAUAUAGAAGCGAAAGCAGCGAGGACCGGUACGGCCGCCACUCGCAGAGUGGUGGACAUGAGGAUCACCCAUGU [Design 2] | 43.8 | 111 | 74.6 | 83.2 | 40
10 | CUAUAUUAUAGAAGGAGCGUCGAAAAUGGGUAAACAUGAGGAUCACCCAUGUAAAGGGAACGACAGGUAGGUCGCUAUAAUAUAG [AstromonsSSArgB#13] | 117 | 201 | 252 | 220 | 195
11 | CUAUAUUUAUCGGCCGCCACUUACUCAUGAGGUAACAACAUGAGGAUCACCCAUGUUUGAGGAUCAAGGACCGGGAUAAAUAUAG [AstrosSSTryB#17] | 25.4 | 34.2 | 31 | – | –
12 | CUAUCCUUGCCGGAUGAAGGACACUGAGAAGGAGCGCGGUAAUCCGCAGGUAGGUCGCUCAGGAGUACAUGAGGAUCACCCAUGU [Xeonrave] | 16.1 | 26.9 | 23.7 | 20.8 | 20.7
13 | CUCCCGUGGUCGGCCGCCACUGGAGGCCUCGCGCGACAUGAGGAUCACCCAUGUUGGCCCGGCUUCAGGACCGGGAUCGCGUGAG [#1 Same State - Tryptophan B Attempt #8 (HarryS)] | 12.2 | 16.2 | 12.6 | – | –
14 | CUGACGUAGGAAGAUAUCUGGAACAAGGAUACCAGUAAACCAACAUACCCUUGGCAGCCUAAAACAUGAGGAUCACCCAUGUAAU [theeternabot_exclusion_MS2_Theo_A_26] | 11.9 | 14.2 | – | – | 13.7
15 | GACAUGAGGAUAGAUACCAGCGACAUGAGGAUCACAUGAGGAUCACCCAUGUGUAGUAUACGCCCUUGGCAGCUAACAUGAGGAU [Same State Theophylline B 3] | 59.5 | 129 | – | – | 68.1
16 | GACAUGAGGAUCACCCAUGUACCGCGAGAAGGAGCGCGGAUAAACGCAGGUAGGUCGCUCGUGGGCUUAUAUUCAAUUGUAAGCU [Usence] | 24.8 | 43.1 | 44.6 | 33.2 | 30.4
17 | GACCCAUGAGUUGGAAAAGCUCAUGGGUCGCGAGGACCGGUACGGCCGCCACUCGGCUGUACAUGAGGAUCACCCAUGUCAGGGU [#1 Same State - Tryptophan A Attempt #25 (HarryS)] | 96.9 | 614 | 573 | 125 | 711
18 | GAGCUGAUGUAGAAAUUUUAUUUAUGAGAUACCAGUACAGAAAUGUACCCUUGGCAGCUCAUUUUUACAUGAGGAUCACCCAUGU [Ex Theophylline A 14] | 13.5 | 12.8 | – | – | 13.3
19 | GAGUAGAGGACGGCCGCCACUGAACAUGAGGAUCACCCAUGUCGUGAUCCGUUACCUAAAGAAGAUAGGACCGGGUCAUGUACUC [Exclusion Tryptophan B GF 19] | 28.9 | 41.7 | 32.7 | – | –

Row | Sequence | apparent KD of MS2 coat protein (input ligand: arginine 13.2 mM) [nM] | apparent KD of MS2 coat protein [1] [nM] | apparent KD of MS2 coat protein [2] [nM] | apparent KD of MS2 coat protein (input ligand: none) [nM] | apparent KD of MS2 coat protein [3] [nM]
20 | GAUGAACUAUAUGAUACCAGACAACAUGAGGAUCACCCAUGUGAAUGUCGUCCUCUGCCUGUCCCUUGGCAGCGUAUAGUUUAUC [XTheo B #15] | 29.3 | 67.6 | – | – | 20.3
21 | GAUGAACUAUUUGAUACCAGACUACAUGAGGAUCACCCAUGUGCGCGUCGUCCUCUGCCAGUCCCUUGGCAGCAAAUAGUUUAUC [XTheo B #9] | 69.8 | 140 | – | – | 85.2
22 | GCACAAGAUGGAAGGAGCGCUGGUAAAGGUCACAUGAGGAUCACCCAUGUGCUCCUUGCCGAGCAGGUAGGUCGCCAUCUUGUGC [SSAB NP+V+V2 #3] | 14.1 | 16.4 | 13.3 | 11.7 | 11.7
23 | GCACGGUAGUCGGCCGCCACUGAAACAUGUGUCUACAUGAGGAUCACCCAUGUGGGUGUGUUUUGUAGGACCGGGACAAGACCCG [#11 Same State - Tryptophan B] | 16.8 | 28.1 | 18 | 19 | 17.2
24 | GCAUCCUAGUCGGCCGCCACUGCAGGAUCGGCGGCAGAUCCUCAACAUGAGGAUCACCCAUGUAGCAGGACCGGGACUAGGAUGC [(Trp1)-(TM)''-(TM)'-(Ms2)-(Trp2)_Design2] | 36.3 | 80.3 | 48.1 | 91.6 | 99.8
25 | GCCUAGCAUCGAAGGAGCGGGCAUUACGCGCGAAAGCGCGAUGCACGAGGAUCACCCGUGUCCCAGGUAGGUCGCGAUGCUAGGC [SSAB Alternative Aptamer #4 V+V2] | 153 | 368 | 527 | 508 | 343
26 | GCGAUGGAGCGAAGGAGCGUGCUAGUACAUGAGGAUCACCCAUGUGAGUCGCAUCGCUAAGCACAGGUAGGUCGCGCUCCAUCGC [EAB NP+V+V2 #9] | 44.6 | 122 | 145 | 94.2 | 87.6
27 | GCGAUGGAGCGAAGGAGCGUGCUGGUACAUGAGGAUCACCCAUGUGAACCGCAGCGCUAAGCACAGGUAGGUCGCGCUCCAUCGC [EAB NP+V+V2 #14] | 102 | 28.4 | 23 | 28.8 | 41.9
28 | GCGAUGGAGCGAAGGAGCGUGCUGGUACAUGAGGAUCACCCAUGUGAGUCGCAUCGCUAAGCACAGGUAGGUCGCGCUCCAUCGC [EAB NP+V+V2 #10] | 48.6 | 85 | 83 | 58.4 | 66.5
29 | GCGCGGCGAGUGCGGCGUGUUCCGCUCCGUCGAGGACCGGUACGGCCGCCACUCGACAUGAGGAUCACCCAUGUCGCCGCGCGCG [Exclusion - Tryptophan A Attempt #3] | 13.9 | 22.9 | 48.3 | 13.3 | 13.5
30 | GCGGUCCACUUGGAUACCAGCAGAUUAAUAAACAUGAGGAUCACCCAUGUAAGCGCCUUGUGCCCUUGGCAGCCAGGGUGGUCAG [theeternabot_sameState_MS2_Theo_B_50] | 55.5 | 136 | – | – | 88.4
31 | GCUAGCCGAAAGGCUAGCAAGGCUACAGAAGGAGCGUGCGAAAGCACAGGUAGGUCGCUGAGCUUGAGGAUCACCCAAGUUGCCU [SSAA - Alter Amptam #1 V+V2] | 26.2 | 57.2 | 48.6 | 66.7 | 64
32 | GCUAGGUCAUCGGCCGCCACUAACGACGGUUCGAACAUGAGGAUCACCCAUGUGCCACAUGCGCAUAGGACCGGGAUGACCUAGC [SSTB NP+V+V2 #6] | 35.7 | 24.3 | 21.2 | 19.5 | 11.7
33 | GCUAGUGGCAGAAGGAGCGACAUUUAUAGUGGUCGAUACAUGAGGAUCACCCAUGUACUAUGUCAGGUAGGUCGCUGCCACUAGC [EAB NP+V+V2 #5] | 31.6 | 44.8 | 34 | 35.1 | 32.5
34 | GCUCACAUGAGGAUCACCCAUGUACGUCCGCGAGGACCGGUACGGCCGCCACUCGUGUUAGCUUCAAACUUGUUAGUGUUAAACA [Atleerge] | 31.3 | 53.4 | 68.4 | – | –
35 | GGACUAACCAGAAGGAGCGGCACAAGCAGAAACUGCAAUCCUCCGCACGAGGAUCACCCGUGUCAGGUAGGUCGCUGGUUAGUCG [ArgBX 28] | 49.2 | 74.6 | 80.4 | 56.8 | 63.7
36 | GGACUAACCAGAAGGAGCGGCACGCAGAAACUGCAAAAUCCUCCGCACGAGGAUCACCCGUGUCAGGUAGGUCGCUGGUUAGUCG [ArgBX 28] | 36.7 | 39.8 | 37.8 | 32.2 | 33.8
37 | GGAUAGAUAGGAGAUACCAGAUACAUCAACAUGAGGAUCACCCAUGUGUCUGCACUAAGUGUCCCUUGGCAGCUCGGAGAUCUGA [#16 Same State - Theophylline B] | 24 | 33.7 | – | – | 32.4
38 | GGAUAGGACACGGCCGCCACUAGCUAGGAUACUAGCAACAUUUCCUCGCUUGAGGAUCACCCAAGUAGGACCGGGUGUCCUAUCG | 302 | 446 | 476 | 560 | 482

Source: the supplement of paper PMC9170038
